Assay: Double-blind crossover gluten challenge: 72-hour quantitative fecal fat test
Assay type: in vivo, human (Celiac Sprue patients)
From the text: It was first established that a low-dose, short-term (5-10 g/day for 14 days) gluten oral supplement induces fat and carbohydrate malabsorption when given to asymptomatic Celiac Sprue patients on an otherwise gluten free diet. This protocol was modified to examine the effect of gluten pre-treated with pepsin, trypsin and chymotrypsin (PTC-Gluten) as compared to PTC-Gluten additionally treated with PEP (PTC-Gluten+PEP). In this study, Celiac patients maintaining a gluten-free diet ingested a supplement of 5 g/day gluten as PTC-Gluten or PTC-Gluten+PEP in an orange-lemon juice vehicle for 14 days in a double-blind crossover manner. A 6-week washout interval between individual arms of the crossover trial allowed patients to recover completely from the effects, if any, of the test material in the first arm.
Subjects and protocols: This study was approved by the Institutional Review Board of the Palo Alto Medical Foundation in Palo Alto, Calif., and all participants in the study were counseled regarding risks and signed an informed consent document. 22 patients were recruited who were in symptomatic remission on a gluten-free diet. Two patients dropped out of the study, one near the end of the first stage and the other prior to the second stage. The 20 patients who completed the study included 7 men and […] aged 21 to 78 (mean age 49). The time since diagnosis for the 20 patients ranged from 3 months to 18 years (mean 6 years). Patients provided copies of their initial small-intestinal biopsy pathology report and laboratory reports documenting a history of at least one positive celiac antibody (gliadin, endomysial or transglutaminase) to verify a diagnosis of Celiac Sprue. They also completed an entry questionnaire inquiring about their medical history, adherence to the gluten-free diet, and current symptoms. The format of the study was a double-blinded crossover in which each patient consumed either a low daily dose of a gluten supplement (5 g; equivalent of one-half slice of bread) that was predigested with pepsin, trypsin and chymotrypsin alone (PTC-Gluten) or PTC-Gluten treated with prolyl endopeptidase (PTC-Gluten+PEP). The PEP in the latter orange juice mixture was completely inactivated through a heating process following proteolysis of the gliadin peptides. […]
Studied variables: During each stage of the study, patients completed a daily questionnaire inquiring about symptoms and their adherence to the gluten-free diet. […] The serum anti-gliadin IgA antibodies and anti-tissue transglutaminase IgA and IgG antibodies were measured by an enzyme linked immunosorbent assay (ELISA) kit (INOVA Diagnostics, Inc., San Diego, Calif.). […] Total serum IgA levels were determined by an Integra instrument (Roche) (normal <81 mg/dl). […]

[1] = All patients with full Fecal Fat data (N = 17)
[2] = Subgroup with normal to Mild Steatorrhea (N = 8)

B1: PEP: prolyl endopeptidase; Examples 1-2: from Flavobacterium meningosepticum (US Biological); Example 11: source not stated (protein, UniProt P27028 21-705, looked up)
Prolyl endopeptidase: QNSNVLKYPETKKVSHTDTYFGTQVSDPYRWLEDDRAEDTKAWVQQEVKFTQDYLAQIPFRDQLKKQLMDIWNYEKISAPFKKGKYTYFSKNDGLQAQSVLYRKDAAGKTEVFLDPNKFSEKGTTSLASVSFNKKGTLVAYSISEGGSDWNKIIILDAETKKQLDETLLDVKFSGISWLGDEGFFYSSYDKPKEGSVLSGMTDKHKVYFHKLGTKQSQDELIIGGDKFPRRYIGAYVTDDQRYLVVSAANATNGNELYIKDLKNKTDFIPIITGFDSNVNVADTDGDTLYLFTDKDAPNKRLVKTTIQNPKAETWKDVIAETSEPLEINTGGGYFFATYMKDAIDQVKQYDKNGKLVRAIKLPGSGNASGFGGEKTEKDLYYSFTNYITPPTIFKYNVTTGNSEVYQKPKVKFNPENYVSEQVFYTSSDGTKIPMMISYKKGLKKDGKNPTILYSYGGFNISLQPAFSVVNAIWMENGGIYAVPNIRGGGEYGKKWHDAGTKMQKKNVFNDFIAAGEYLQKNGYTSKEYMALSGRSNGGLLVGATMTMRPDLAKVAFPGVGVLDMLRYNKFTAGAGWAYDYGTAEDSKEMFEYLKSYSPVHNVKAGTCYPSTMVITSDHDDRVVPAHSFKFGSELQAKQSCKNPILIRIETNAGHGAGRSTEQVVAENADLLSFALYEMGIKSLK
Q: Which “PEP Effective (patients / patients with positive gluten challenge), fecal fat” value [1] does the source give for B1 here?
A: 5/7

Q: And the “PEP Effective, fecal fat” value [1]?
A: 71%

Q: And the “PEP Effective (patients / patients with positive gluten challenge), fecal fat” value [2]?
A: 4/4

Q: What about the “PEP Effective, fecal fat” value [2] of the same molecule?
A: 100%

Reference: patent publication US8796201B2 (The Board of Trustees of the Leland Stanford Junior …, priority 2002, dated 2014)
